In article PMC6823292, “Molecular structure of human synaptonemal complex protein SYCE1” (Chromosoma, 2019):

B1: human SYCE1 core (amino acids 25–179) (domain or fragment, UniProt Q8N0S2 25-179, looked up)
chain: GQDTSSQKIEDLMEMVQKLQKVGSLEPRVEVLINRINEVQQAKKKANKDLGEARTICEALQKELDSLHGEKVHLKEILSKKQETLRILRLHCQEKESEAHRKHTMLQECKERISALNLQIEEEKNKQRQLRLAFEEQLEDLMGQHKDLWDFHMPE
notes: also called SYCE1 structural core; source: E. coli BL21(DE3), purified (amylose, anion exchange, TEV cleavage, anion exchange, SEC); not shown: His, N-terminal, cleaved; MBP, N-terminal, cleaved
B2: MBP-SYCE1-MBP (N- and C-terminal MBP double fusion of SYCE1 core, amino acids 25–179) (domain or fragment, human, UniProt Q8N0S2 25-179, looked up)
chain: B1 chain
notes: source: E. coli BL21(DE3), purified; not shown: MBP, N-terminal, kept; MBP, C-terminal, kept
B3: MBP-SYCE1 (N-terminal MBP fusion of SYCE1 core, amino acids 25–179) (domain or fragment, human, UniProt Q8N0S2 25-179, looked up)
chain: B1 chain
notes: pMAT11 gives a His-MBP fusion with a TEV site; source: E. coli BL21(DE3), purified; not shown: MBP, N-terminal, kept
B4: SYCE1-MBP (C-terminal MBP fusion of SYCE1 core, amino acids 25–179) (domain or fragment, human, UniProt Q8N0S2 25-179, looked up)
chain: B1 chain
notes: source: E. coli BL21(DE3), purified; not shown: MBP, C-terminal, kept
B5: human SYCE1 full length (amino acids 1–351) (natural protein, UniProt Q8N0S2 1-351, looked up)
chain: MAGRSLTSKAEPTAGAVDRAEKAGGQDTSSQKIEDLMEMVQKLQKVGSLEPRVEVLINRINEVQQAKKKANKDLGEARTICEALQKELDSLHGEKVHLKEILSKKQETLRILRLHCQEKESEAHRKHTMLQECKERISALNLQIEEEKNKQRQLRLAFEEQLEDLMGQHKDLWDFHMPERLAKEICALDSSKEQLLKEEKLVKATLEDVKHQLCSLCGAEGPSTLDEGLFLRSQEAAATVQLFQEEHRKAEELLAAAAQRHQQLQQKCQQQQQKRQRLKEELEKHGMQVPAQAQSTQEEEAGPGDVASPKPLKGERPGAAHQAGPDVLIGQEDTLHPDLSPRGFQEIKELF
notes: synaptonemal complex central element protein 1 (SYCE1), human, full length, amino acids 1–351; also called full-length SYCE1; source: E. coli BL21(DE3), purified (amylose, anion exchange, TEV cleavage, anion exchange, SEC); not shown: His, N-terminal, cleaved; MBP, N-terminal, cleaved

Molecular target: the molecule itself
Assay: SEC-MALS; 6–20 mg/ml loaded on Superdex 200 Increase 10/300 GL in 20 mM Tris pH 8.0, 150 mM KCl, 2 mM DTT

Stoichiometry N, 2:
B1
B2
B3
B4
B5
